Measured values as given in the supplement of paper PMC12042874.
± gives the uncertainty stated by the source.

assay: amyloid nucleation score (Sup35N fusion, yeast selection) (log enrichment); library NNK1; higher = more nucleation; inactive = no reads after selection
Summary of the method: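 The nucleation score is the DiMSum log enrichment of output over input reads, centred on the mode score of non-aggregating sequences. Only sequences with 100 or more input reads were scored, using Illumina sequencing of input and output plasmid inserts. Psi-negative yeast expressing Sup35N fused to peptides of 20 random codons were induced 24 hours with 100 μM copper sulfate and grown 7 days at 30°C on medium lacking adenine and uracil.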

FGASIGDGDFRVM and VLIGIWLHLGHFEPALSM are within error of each other in amyloid nucleation score: 0.069 ± 0.53 for the first, -0.133 ± 0.53 for the second.

SRMLAVKFKLVVTNCCVKLI and IDIWVLLMNHGMKASPGDLE are within error of each other in amyloid nucleation score: -0.598 ± 1.4 for the first, -0.479 ± 0.42 for the second.

DRLVDTNYRASGYPVRYMVS and CCRSRLLIITRTVSTAGDSR are within error of each other in amyloid nucleation score: -1.31 ± 0.78 for the first, -0.54 ± 1.3 for the second.

FHLWHLIVYILALY and AWNGFDWYHARFCTMSTYIL are within error of each other in amyloid nucleation score: -0.955 ± 0.77 for the first, -0.56 ± 0.38 for the second.

Going from HNLDCKRVGSARTWIEWWVG to TFLTCYRPGPIDNSWRIVSM, the amyloid nucleation score rises from 0.07 ± 0.3 to 1.1 ± 0.41.

DLVYVSRLYISVNRYPSWFV and LRILVITYILCT are within error of each other in amyloid nucleation score: -0.462 ± 0.51 for the first, -0.331 ± 0.42 for the second.

GEFVWKEASATCCSWGKLRR and RLCASYSKYETFVADARRDG are within error of each other in amyloid nucleation score: 0.425 ± 0.72 for the first, 0.413 ± 0.19 for the second.

VPTSSFGGFVYVGVRVMCS and PAYRRCRPFFVHAHRFMGST are within error of each other in amyloid nucleation score: -0.487 ± 0.8 for the first, 0.681 ± 0.44 for the second.

CMYFFRVTGKINNINSLYCW and VSRNFVTKDSQLNGLSN are within error of each other in amyloid nucleation score: -0.824 ± 0.38 for the first, -1.52 ± 1.4 for the second.

Compared with VLDVVVCSSWGDLKRNLRPC, ELVLSSSWFRRNSYALCKLR is lower in amyloid nucleation score: 3.29 ± 0.11 for the first, 0.716 ± 1 for the second.

Going from IELDYYIINIVWPPAGNYRH to MWTNWDVLPELDGTPRALLW, the amyloid nucleation score falls from 6.734 ± 0.062 to -0.501 ± 0.99.

LDVFPNYASRCTWAVDASFL and NKNCLELCLTHGMLNQL are within error of each other in amyloid nucleation score: -0.703 ± 2.1 for the first, 0.25 ± 0.36 for the second.

First: SNEVSGLVCQLTNVVYLLGL
Second: LIVNRSKFLT
The amyloid nucleation score of the first is higher: 4.89 ± 0.052 for the first, 0.625 ± 0.36 for the second.

RGFLRRHGGKGFNVLQAVGR and SKSSRTFLVFSLVWVYNLLM are within error of each other in amyloid nucleation score: 1.16 ± 0.72 for the first, 1.73 ± 0.19 for the second.

RIEHISQRQCMTFSIVTVVN and MQSLRLTESSGPFSLYFAFI are within error of each other in amyloid nucleation score: -0.49 ± 1.1 for the first, -0.227 ± 0.81 for the second.

Compared with TVRNYHFVLV, DLFDIDLRYFLLRVFKGCP is lower in amyloid nucleation score: 1.46 ± 0.33 for the first, 0.579 ± 0.46 for the second.

GMLISTSIMHNES and GSGKCVPGDTELAILGLKR are within error of each other in amyloid nucleation score: 0.164 ± 0.4 for the first, 0.299 ± 0.7 for the second.

TFVLYGCDRKVFRRNVVTAS and CVDCALQFLGCRVGALLTRG are within error of each other in amyloid nucleation score: 0.316 ± 0.35 for the first, -0.875 ± 1.7 for the second.

Going from YVYNFMYTVNCMVEPFWLEC to AWCSSDGCFCPKRYMLLRSL, the amyloid nucleation score falls from 7.12 ± 0.048 to 0.159 ± 0.84.

SIDCLCYYAPRLFRMHVELT and LNHSAIRHTVSGLNPWSWAG are within error of each other in amyloid nucleation score: -0.656 ± 0.89 for the first, -0.288 ± 1.5 for the second.

Going from HSIWSRERVVVGVIYVCNFN to LLQSGGLVIRVHCSMFTVGA, the amyloid nucleation score falls from 7.227 ± 0.048 to -0.889 ± 0.78.

SIYHYCRDIRDCRMSRLELG and GYENGDGDERD are within error of each other in amyloid nucleation score: 0.572 ± 0.33 for the first, -0.403 ± 1.2 for the second.

IVNFRVNRPSL and CRLKLNPSVHGIGRGVCLAE are within error of each other in amyloid nucleation score: 0.205 ± 0.31 for the first, -0.464 ± 0.48 for the second.

Compared with LDVLLLLMDCSRYPKIKGGI, AFQESRGQSNWYIYMLVHTS is higher in amyloid nucleation score: -0.012 ± 0.43 for the first, 1.11 ± 0.54 for the second.

FTFKWMGSPWLWR and NDACYWEFCYADKLYFEWWF are within error of each other in amyloid nucleation score: 0.485 ± 1.2 for the first, 1.04 ± 0.44 for the second.

LVGGCPLTRGRGYGRPRNGG and RRWYTSHLLWGRNISAGDIL are within error of each other in amyloid nucleation score: -1.9 ± 2.7 for the first, -0.221 ± 0.44 for the second.

Going from TIYTSSGVVMALVHRLHLVA to SNATVGQPRYNVRTGKAGCE, the amyloid nucleation score rises from -1.1 ± 0.68 to 0.351 ± 0.48.

TRVEFEQGVVFGELYSVFRV and QNRSHKPEFGRMPASQPVTN are within error of each other in amyloid nucleation score: 0.351 ± 0.39 for the first, 0.447 ± 0.63 for the second.

LRVYGGFLSMSCMRQRDGTV and IYGAAFVAEGWTPTLSVGDK are within error of each other in amyloid nucleation score: 0.151 ± 0.39 for the first, 0.141 ± 0.39 for the second.

First: LRIARVYVYKIRAWSVVSGK
Second: AAVRALLYRCVVHVRFFFKE
The amyloid nucleation score of the first is lower: -1.35 ± 0.63 for the first, 1.06 ± 0.54 for the second.

Compared with FNVKSSMRNPGCIPWHRATY, WFFVDSVYIRNKFSLEKGSA is higher in amyloid nucleation score: -0.616 ± 1.7 for the first, 7.494 ± 0.052 for the second.

VRFFAPPWTWWLC and WTMNLLA are within error of each other in amyloid nucleation score: 0.087 ± 0.44 for the first, -0.048 ± 0.16 for the second.

TTMIRSYFREDYGQGPLMSW and NPWVWTLSIEQGRNE are within error of each other in amyloid nucleation score: 0.51 ± 1.2 for the first, 0.074 ± 0.34 for the second.

WLVLTMS and SPLMRFFSTDSGARIFLNMS are within error of each other in amyloid nucleation score: 0.086 ± 0.36 for the first, -0.388 ± 0.52 for the second.

GSVLKLYRGITHSRNERRGP and MFSNILHAHLRAWA are within error of each other in amyloid nucleation score: -0.171 ± 1.1 for the first, 0.53 ± 0.27 for the second.

First: DCYHLGQTIPISRFGLRTKL
Second: DIRLIPCMSMVC
The amyloid nucleation score of the first is higher: 0.826 ± 0.75 for the first, -1.38 ± 1.1 for the second.

Going from GLRTLEPYRYVIIMVPGQVA to RYLYVPALPFNFLCL, the amyloid nucleation score rises from -0.164 ± 0.68 to 1.63 ± 0.1.

Going from KCWLHCWWTVNKTLRYAVRS to FTVLSVVSALQGGRHYPLMG, the amyloid nucleation score rises from -0.531 ± 0.47 to 0.357 ± 0.33.

With ITVST the amyloid nucleation score was -0.134 ± 1.4.

For TTRCVFSPDNVDTDY, the amyloid nucleation score was “inactive”.
For ILCTIFHRTCFLRFRILEHF, the amyloid nucleation score was “inactive”.
For FTCMCH, the amyloid nucleation score was “inactive”.
With LTARSFKCF the amyloid nucleation score was “inactive”.
For LFVGWYYYSVFSFV, the amyloid nucleation score was “inactive”.
For AEYNVGLLSCSNDSLWDQWS, the amyloid nucleation score was “inactive”.
For LIFLLSQSIVVMQWSGRKKQ, the amyloid nucleation score was “inactive”.
